The values that follow come from paper PMC11849937, “Atractylenolide I inhibits angiogenesis and reverses sunitinib resistance in clear cell renal cell carcinoma through ATP6V0D2-mediated autophagic degradation of EPAS1/HIF2α” (Autophagy, 2024).

This assay has as its target T1, His-VPS41 (recombinant, bacterial) (UniProt P49754 1-854).
T1 construct: VPS41; The only His-VPS41 plasmid that the methods name is in the vector pGMLV; source: BL21 (Rosetta) bacterial cells, purified (His beads)
T1 sequence (looked up): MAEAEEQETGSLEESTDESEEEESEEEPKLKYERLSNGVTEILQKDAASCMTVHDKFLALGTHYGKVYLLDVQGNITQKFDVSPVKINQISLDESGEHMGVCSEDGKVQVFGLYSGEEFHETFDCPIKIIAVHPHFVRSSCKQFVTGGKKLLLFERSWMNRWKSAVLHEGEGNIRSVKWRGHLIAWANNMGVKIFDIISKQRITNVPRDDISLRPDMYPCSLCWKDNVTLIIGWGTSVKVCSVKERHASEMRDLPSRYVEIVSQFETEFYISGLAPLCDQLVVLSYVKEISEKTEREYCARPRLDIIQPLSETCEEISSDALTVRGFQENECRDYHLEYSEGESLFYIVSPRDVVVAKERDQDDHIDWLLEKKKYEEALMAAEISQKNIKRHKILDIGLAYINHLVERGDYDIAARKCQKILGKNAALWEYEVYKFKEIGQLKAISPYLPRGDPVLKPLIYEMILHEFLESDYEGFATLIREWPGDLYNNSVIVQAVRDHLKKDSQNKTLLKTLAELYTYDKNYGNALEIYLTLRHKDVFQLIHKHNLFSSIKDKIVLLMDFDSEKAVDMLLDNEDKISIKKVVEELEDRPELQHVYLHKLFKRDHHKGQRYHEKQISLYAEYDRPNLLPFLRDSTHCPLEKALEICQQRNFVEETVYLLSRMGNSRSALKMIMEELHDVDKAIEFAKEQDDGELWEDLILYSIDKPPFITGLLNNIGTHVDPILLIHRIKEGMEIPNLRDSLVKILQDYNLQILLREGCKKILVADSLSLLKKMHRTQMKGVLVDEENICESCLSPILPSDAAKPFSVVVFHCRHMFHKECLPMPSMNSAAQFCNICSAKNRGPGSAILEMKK
Kind of assay: pull-down; GST-tagged protein (2.5 ug) immobilised on glutathione-Sepharose beads, incubated with His-RAB7, His-VPS41 or both in affinity-isolation buffer with PMSF; western blot. Particulars: both partners purified. For orientation: In western blotting, separated proteins are transferred to a membrane and probed.

B1: GST-tagged ATP6V0D2 (natural protein)
chain: not shown
notes: ATP6V0D2, ATPase H+ transporting V0 subunit d2; Construct bought from Tsingke Biotechnology; also called GST-ATP6V0D2; source: BL21 (Rosetta) bacterial cells, purified (glutathione-Sepharose beads)
Turning to B1, the binding result was “binds”.
